Values joined by “and” are separate entries in the source; they are usually repeats but may differ in a detail not shown here. Equal entries are not always repeated.
Key:
human serum albumin = target: T1, human serum albumin (human, UniProt P02768 25-609); assay: in-solution affinity, Gyrolab
T1 construct: also called HSA; human SA
Experimental: (§1) Fitting of the dilution series was done using Gyrolab Analysis software, where KD- and receptor-controlled curves were analyzed to determine the KD value.

cyno serum albumin = target: T2, cyno serum albumin (cynomolgus monkey, UniProt A2V9Z4 25-608); assay: in-solution affinity, Gyrolab
T2 construct: also called cyno SA
T2 sequence (A2V9Z4 25-608 limits assumed): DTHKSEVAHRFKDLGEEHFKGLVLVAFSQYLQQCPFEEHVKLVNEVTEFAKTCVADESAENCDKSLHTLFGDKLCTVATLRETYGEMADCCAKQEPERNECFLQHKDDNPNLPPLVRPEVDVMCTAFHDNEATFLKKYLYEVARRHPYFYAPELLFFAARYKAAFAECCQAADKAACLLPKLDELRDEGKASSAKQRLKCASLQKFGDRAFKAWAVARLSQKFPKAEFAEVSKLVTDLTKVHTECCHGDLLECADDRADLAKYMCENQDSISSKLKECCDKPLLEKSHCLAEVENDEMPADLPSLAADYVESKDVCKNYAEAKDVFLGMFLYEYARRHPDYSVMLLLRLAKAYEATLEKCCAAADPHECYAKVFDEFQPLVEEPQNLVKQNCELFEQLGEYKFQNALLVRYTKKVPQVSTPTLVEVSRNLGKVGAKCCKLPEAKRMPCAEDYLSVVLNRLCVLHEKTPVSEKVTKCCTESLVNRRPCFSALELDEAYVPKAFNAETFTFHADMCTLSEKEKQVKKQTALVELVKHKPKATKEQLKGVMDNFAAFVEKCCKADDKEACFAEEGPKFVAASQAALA
Experimental: as §1

human IL-6 [1] = target: T3, human IL-6 (human, UniProt P05231 30-212); assay: in-solution affinity, Gyrolab
T3 construct: also called hIL-6
Experimental: as §1

cyno TNF-α [2] = target: T4, cyno TNF-α (cynomolgus monkey, UniProt P79337 77-233); assay: in-solution affinity, Gyrolab
T4 construct: also called cynomolgus monkey TNF-α
T4 sequence (P79337 77-233 limits assumed): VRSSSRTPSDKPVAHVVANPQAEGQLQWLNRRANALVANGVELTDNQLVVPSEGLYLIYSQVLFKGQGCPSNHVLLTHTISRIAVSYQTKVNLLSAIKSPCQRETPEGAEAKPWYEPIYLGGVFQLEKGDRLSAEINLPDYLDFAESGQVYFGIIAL
Experimental: as §1

mouse serum albumin = target: T5, mouse serum albumin (mouse, UniProt P07724 25-608); assay: in-solution affinity, Gyrolab
T5 construct: also called mouse SA
Experimental: as §1

human TNF-α [3] = target: T6, human TNF-α (human, UniProt P01375 77-233); assay: in-solution affinity, Gyrolab
T6 construct: also called hTNF-α; recombinant soluble hTNF-α
T6 sequence (P01375 77-233 limits assumed): as the sequence (P79337 77-233 limits assumed) above, with V37L, T44R, N72T, L138R counted along it
Experimental: as §1

cyno IL-6 [4] = target: T7, cyno IL-6 (cynomolgus monkey, UniProt P79341 28-212, limits assumed); assay: cell-based or functional assay
T7 sequence (looked up): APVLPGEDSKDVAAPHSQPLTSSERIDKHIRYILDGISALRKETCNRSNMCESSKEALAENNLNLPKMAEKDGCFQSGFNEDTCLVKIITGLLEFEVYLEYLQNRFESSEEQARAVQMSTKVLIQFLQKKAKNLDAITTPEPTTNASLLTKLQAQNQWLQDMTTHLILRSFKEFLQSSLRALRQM

human IL-6 [5] = target: T3, human IL-6; assay: cell-based or functional assay
cyno TNF-α [6] = target: T4, cyno TNF-α; assay: cell-based or functional assay
human TNF-α [7] = target: T6, human TNF-α; assay: cell-based or functional assay
human IL23 = target: T8, human IL23 (human, UniProt Q9NPF7 20-189; P29460 23-328); assay: SPR (ProteOn XPR36), target immobilized
T8 sequence (looked up) 1: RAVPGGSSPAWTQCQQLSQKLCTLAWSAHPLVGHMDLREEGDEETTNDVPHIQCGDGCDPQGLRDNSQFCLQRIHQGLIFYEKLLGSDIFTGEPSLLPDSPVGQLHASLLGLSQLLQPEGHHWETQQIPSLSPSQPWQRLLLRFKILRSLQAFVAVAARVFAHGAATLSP
T8 sequence (looked up) 2: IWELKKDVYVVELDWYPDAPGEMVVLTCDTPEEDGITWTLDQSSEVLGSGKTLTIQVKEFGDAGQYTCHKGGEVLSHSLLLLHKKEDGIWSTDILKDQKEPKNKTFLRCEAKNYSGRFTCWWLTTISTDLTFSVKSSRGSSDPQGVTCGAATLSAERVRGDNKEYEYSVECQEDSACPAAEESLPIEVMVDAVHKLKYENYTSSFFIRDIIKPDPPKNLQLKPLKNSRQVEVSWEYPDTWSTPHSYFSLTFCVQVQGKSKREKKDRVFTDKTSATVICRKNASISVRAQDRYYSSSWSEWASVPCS

human CD30L = target: T9, human CD30L (human, UniProt P32971 63-234, limits assumed); assay: SPR (ProteOn XPR36), target immobilized
T9 sequence (looked up): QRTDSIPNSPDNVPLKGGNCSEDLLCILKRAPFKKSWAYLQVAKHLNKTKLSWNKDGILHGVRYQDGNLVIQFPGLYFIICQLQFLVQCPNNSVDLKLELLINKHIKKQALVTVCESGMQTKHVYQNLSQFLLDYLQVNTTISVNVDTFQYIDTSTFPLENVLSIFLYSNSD

human CD40L = target: T10, human CD40L (human, UniProt P29965 113-261, limits assumed); assay: SPR (ProteOn XPR36), target immobilized
T10 sequence (looked up): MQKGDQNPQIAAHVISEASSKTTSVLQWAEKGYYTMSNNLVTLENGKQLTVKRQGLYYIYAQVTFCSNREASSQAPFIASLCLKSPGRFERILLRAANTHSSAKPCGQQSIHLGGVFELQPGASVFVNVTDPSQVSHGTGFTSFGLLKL

[8] = target: T11, human membrane TNFα expressed on HEK293H cells (human, UniProt P01375 1-233); assay: flow cytometry, HEK293H cells expressing human membrane TNFα, without HSA, 24 h
T11 construct: whole, on cells; also called membrane expressed TNFα
T11 sequence (P01375 whole entry): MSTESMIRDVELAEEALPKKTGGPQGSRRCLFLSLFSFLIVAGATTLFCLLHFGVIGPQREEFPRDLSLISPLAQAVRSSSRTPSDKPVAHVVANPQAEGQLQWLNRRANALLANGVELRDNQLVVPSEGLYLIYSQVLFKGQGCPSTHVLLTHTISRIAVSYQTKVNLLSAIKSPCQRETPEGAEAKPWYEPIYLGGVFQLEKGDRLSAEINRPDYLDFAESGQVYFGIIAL
Experimental: Briefly, cells were fixed with 4% paraformaldehyde and 0.1% glutaraldehyde in PBS (to increase detection of membrane bound TNFα). […] Cells were washed 3 times and subsequently incubated with an anti-VHH mAb (ABH00119) for 30 min at 4° C., washed again, and incubated for 30 min at 4° C. with a goat anti-mouse or anti-human PE labeled antibody. Samples were washed and resuspended in FACS Buffer (D-PBS with 10% FBS and 0.05% sodium azide supplemented with 5 nM TOPRO3). Cell suspensions were then analyzed on an iQuescreener. EC50 values were calculated using GraphPad Prism.

cyno IL-6 [9] = target: T7, cyno IL-6; assay: cell-based or functional assay; remark: listed apart in the source
human IL-6 [10] = target: T3, human IL-6; assay: cell-based or functional assay; remark: listed apart in the source
cyno TNF-α [11] = target: T4, cyno TNF-α; assay: cell-based or functional assay; remark: listed apart in the source
human TNF-α [12] = target: T6, human TNF-α; assay: cell-based or functional assay; remark: listed apart in the source
cyno IL-6 [13] = target: T7, cyno IL-6; assay: cell-based or functional assay; remark: listed apart in the source
cyno IL-6 [14] = target: T7, cyno IL-6; assay: cell-based or functional assay; remark: listed apart in the source
human IL-6 [15] = target: T3, human IL-6; assay: cell-based or functional assay; remark: listed apart in the source
cyno TNF-α [16] = target: T4, cyno TNF-α; assay: cell-based or functional assay; remark: listed apart in the source
human TNF-α [17] = target: T6, human TNF-α; assay: cell-based or functional assay; remark: listed apart in the source

T1 sequence (P02768 25-609 limits assumed): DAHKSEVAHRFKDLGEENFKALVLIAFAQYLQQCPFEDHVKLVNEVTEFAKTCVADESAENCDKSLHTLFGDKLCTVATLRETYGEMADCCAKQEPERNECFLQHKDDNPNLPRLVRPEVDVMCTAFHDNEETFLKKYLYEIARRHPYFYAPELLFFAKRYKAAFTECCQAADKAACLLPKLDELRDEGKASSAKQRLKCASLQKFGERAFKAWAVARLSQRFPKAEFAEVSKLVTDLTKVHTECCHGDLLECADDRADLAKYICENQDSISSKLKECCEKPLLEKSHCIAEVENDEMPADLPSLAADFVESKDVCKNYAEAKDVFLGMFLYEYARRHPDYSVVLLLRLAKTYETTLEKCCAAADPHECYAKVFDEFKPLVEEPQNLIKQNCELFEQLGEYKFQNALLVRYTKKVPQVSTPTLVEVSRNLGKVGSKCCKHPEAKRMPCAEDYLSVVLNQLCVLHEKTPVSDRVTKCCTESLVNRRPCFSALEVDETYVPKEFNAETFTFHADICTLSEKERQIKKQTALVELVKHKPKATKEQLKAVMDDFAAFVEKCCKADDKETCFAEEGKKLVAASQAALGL

B1: F027201062 (bispecific antibody)
chain: DVQLVESGGGVVQPGGSLRLSCAASGRTFSNYAMAWFRQAPGKEREFVAVISYAGGRTYYADSVKGRFTISRDNAKNTVYLQMNSLRPEDTALYYCAAVDSPLIATHPRGYDYWGQGTLVTVSSGGGGSGGGSEVQLVESGGGVVQPGGSLRLSCAASGFTFRSFGMSWVRQAPGKGPEWVSSISGSGSDTLYADSVKGRFTISRDNSKNTLYLQMNSLRPEDTALYYCTIGGSLSRSSQGTLVTVSSGGGGSGGGSEVQLVESGGGVVQPGGSLRLSCAASGFTLAYYAIGWFRQAPGKEREGVSCISGSVGTTYYADSVKGRFTISRDNAKNTVYLQMNSLRPEDTALYYCVRSSWFDCGVQGRDLGNEYDYRGQGTLVTVSSGGGGSGGGSEVQLVESGGGVVQPGGSLRLSCTASGFTFSTADMGWFRQAPGKGREFVARISGIDGTTYYDEPVKGRFTISRDNSKNTVYLQMNSLRPEDTALYYCRSPRYADQWSAYDYWGQGTLVKVSSA
notes: anti-IL-6 (17C04, 6B12), anti-HSA (ALB23002), anti-TNF-α (6C11), C-terminal alanine; produced in Pichia pastoris; also called ISVD construct F027201062; Nanobody F027201062
Kd (human serum albumin): 7.6 nM and 6.4 nM and 6.2 nM | Kd (cyno serum albumin): 6.7 nM and 4.9 nM and 6.1 nM | Kd (human IL-6 [1]): 7.3 pM and 5.3 pM and 3 pM | Kd (cyno TNF-α [2]): 0.0538 nM and 0.0237 nM and 0.0259 nM | Kd (mouse serum albumin): 58.5 nM and 62.2 nM and 56 nM | Kd (human TNF-α [3]): 5.7 pM and 5.2 pM and 9.9 pM | cyno IL-6 TF1 proliferation assay (IC50, pM) (cyno IL-6 [4]): 65 pM | Ratio IC50 reference anti-IL-6 mAb1/Nb (human IL-6 [5]): 2.4 ratio | hIL-6 TF1 proliferation assay (IC50, pM) (human IL-6 [5]): 134 pM | cyno TNF-α NFkb assay (IC50, pM) (cyno TNF-α [6]): 193 pM | Ratio IC50 reference anti-TNF-α mAb/Nb (human TNF-α [7]): 0.67 ratio | hTNF-α Nfkb assay (IC50, pM) (human TNF-α [7]): 98 pM | binding result (human IL23): no binding (tested: 300 nM) | binding result (human CD30L): no binding (tested: 300 nM) | binding result (human CD40L): no binding (tested: 300 nM) | EC50 [8]: 0.12 nM and 0.18 nM and 0.17 nM | Ratio IC50 cyno IL-6/hIL-6 (cyno IL-6 [9]): 0.5 ratio | IC50 hIL-6 TF1 proliferation assay (human IL-6 [10]): 134 pM | Ratio IC50 cyno TNFα/hTNFα (cyno TNF-α [11]): 2 ratio | IC50 hTNF-α Nfkb assay (human TNF-α [12]): 97.8 pM | IC50, IL-6 induced TF-1 proliferation (cyno IL-6 [13]): 64.6 pM and 59.2 pM and 43.4 pM | average IC50, IL-6 induced TF-1 proliferation (cyno IL-6 [14]): 56 pM | IC50 of IL-17A/sIL-6R induced VEGF-A release, RA-FLS (human IL-6 [15]): 2 nM | average IC50, IL-6 induced TF-1 proliferation (human IL-6 [15]): 34 pM | average IC50, NFκB reporter assay (cyno TNF-α [16]): 158 pM | IC50 of SEB-induced CCL4 release, human whole blood (human TNF-α [17]): 0.92 nM | IC50 of SEB-induced MCP-1 release, human whole blood (human TNF-α [17]): 3.2 nM | average IC50, NFκB reporter assay (human TNF-α [17]): 53 pM

— patent publication US20240301049A1 (Ablynx, published 2024)
